Results taken from patent US20210246166A1 (Bayer, published 2021).
Numbered stars: 1 amine (or outer) side, 2 acyl side, 3 side chain; on linkers, the order of the positions; unused ones are H or OH. Bridge positions count the residues as written; N and C are the ends. Square brackets hold non-standard residues; d marks the D form. Ends that are not written are not given here. * marks the point of attachment. X11 = (S)‑Piperidine‑3‑carboxylic acid, O=C([C@H]1CCCN([*:1])C1)[*:2]; NH(CH2CH2O)5CH2CO = O=C(COCCOCCOCCOCCOCCN[*:1])[*:2]; PEG9 = NCCOCCOCCOCCOCCOCCOCCOCCOCCOCCC(=O)O; Benzoyl(3-COOH) = O=C(O)c1cccc(C(=O)*)c1; Benzoyl(4-COOH) = O=C(O)c1ccc(C(=O)*)cc1; Nip(3R) = O=C([C@@H]1CCCN([*:1])C1)[*:2]; Oic = O=C(O)[C@@H]1C[C@@H]2CCCC[C@@H]2N1; PEG8 = NCCOCCOCCOCCOCCOCCOCCOCCOCCC(=O)O; tBuAla = CC(C)(C)C[C@H](N)C(=O)O; Pen = CC(C)(S)[C@H](N)C(=O)O; Orn = NCCC[C@H](N)C(=O)O; PEG2 = NCCOCCOCCC(=O)O; Sar = CNCC(=O)O

T1: Recombinant human MASP1 enzyme (fragment corresponding to amino acids 297-699, C-terminal His Tag) (human, UniProt P48740 297-699)
T1 sequence: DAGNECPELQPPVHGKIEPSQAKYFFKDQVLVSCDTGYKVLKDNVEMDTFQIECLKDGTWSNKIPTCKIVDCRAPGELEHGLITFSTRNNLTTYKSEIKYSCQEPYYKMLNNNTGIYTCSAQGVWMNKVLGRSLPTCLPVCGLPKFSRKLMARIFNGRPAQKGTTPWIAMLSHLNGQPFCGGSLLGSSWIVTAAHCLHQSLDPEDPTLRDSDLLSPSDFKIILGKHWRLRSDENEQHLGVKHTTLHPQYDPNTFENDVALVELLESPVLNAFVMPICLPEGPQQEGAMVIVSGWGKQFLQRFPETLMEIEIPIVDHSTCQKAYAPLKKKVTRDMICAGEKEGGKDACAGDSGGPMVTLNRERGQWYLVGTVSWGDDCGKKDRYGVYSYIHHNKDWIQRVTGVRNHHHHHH

B1: ((N-Me)G)-IC+SRSLP-(Oic)-I-(Pen)+IPGd-OH (peptide)
peptide: [Sar]ICSRSLP[Oic]I[Pen]IPG[dD]-OH
modifications: disulfide 3-11; N-terminus assumed
SMILES: CC[C@H](C)[C@H](NC(=O)CNC)C(=O)N[C@H]1CSSC(C)(C)[C@@H](C(=O)N[C@H](C(=O)N2CCC[C@H]2C(=O)NCC(=O)N[C@H](CC(=O)O)C(=O)O)[C@@H](C)CC)NC(=O)[C@H]([C@@H](C)CC)NC(=O)[C@@H]2C[C@@H]3CCCC[C@@H]3N2C(=O)[C@@H]2CCCN2C(=O)[C@H](CC(C)C)NC(=O)[C@H](CO)NC(=O)[C@H](CCCNC(=N)N)NC(=O)[C@H](CO)NC1=O
B2: (4-Carboxybenzoic acid)-GIC+SRSLP-(Oic)-I-(Pen)+IPD-OH (peptide)
peptide: {Benzoyl(4-COOH)}-GICSRSLP[Oic]I[Pen]IPD-OH
modifications: disulfide 3-11
SMILES: CC[C@H](C)[C@H](NC(=O)CNC(=O)c1ccc(C(=O)O)cc1)C(=O)N[C@H]1CSSC(C)(C)[C@@H](C(=O)N[C@H](C(=O)N2CCC[C@H]2C(=O)N[C@@H](CC(=O)O)C(=O)O)[C@@H](C)CC)NC(=O)[C@H]([C@@H](C)CC)NC(=O)[C@@H]2C[C@@H]3CCCC[C@@H]3N2C(=O)[C@@H]2CCCN2C(=O)[C@H](CC(C)C)NC(=O)[C@H](CO)NC(=O)[C@H](CCCNC(=N)N)NC(=O)[C@H](CO)NC1=O
B3: ((N-Me)G)-IC+SRS-((tBu)A)-PPI-(Pen)+IP-(Orn)-D-OH (peptide)
peptide: [Sar]ICSRS[tBuAla]PPI[Pen]IP[Orn]D-OH
modifications: disulfide 3-11; N-terminus assumed
SMILES: CC[C@H](C)[C@H](NC(=O)CNC)C(=O)N[C@H]1CSSC(C)(C)[C@@H](C(=O)N[C@H](C(=O)N2CCC[C@H]2C(=O)N[C@@H](CCCN)C(=O)N[C@@H](CC(=O)O)C(=O)O)[C@@H](C)CC)NC(=O)[C@H]([C@@H](C)CC)NC(=O)[C@@H]2CCCN2C(=O)[C@@H]2CCCN2C(=O)[C@H](CC(C)(C)C)NC(=O)[C@H](CO)NC(=O)[C@H](CCCNC(=N)N)NC(=O)[C@H](CO)NC1=O
B4: ((N-Me)G)-IC+SRSLP-(Oic)-I-(Pen)+IPT-OH (peptide)
peptide: [Sar]ICSRSLP[Oic]I[Pen]IPT-OH
modifications: disulfide 3-11; N-terminus assumed
SMILES: CC[C@H](C)[C@H](NC(=O)CNC)C(=O)N[C@H]1CSSC(C)(C)[C@@H](C(=O)N[C@H](C(=O)N2CCC[C@H]2C(=O)N[C@H](C(=O)O)[C@@H](C)O)[C@@H](C)CC)NC(=O)[C@H]([C@@H](C)CC)NC(=O)[C@@H]2C[C@@H]3CCCC[C@@H]3N2C(=O)[C@@H]2CCCN2C(=O)[C@H](CC(C)C)NC(=O)[C@H](CO)NC(=O)[C@H](CCCNC(=N)N)NC(=O)[C@H](CO)NC1=O
B5: ((S)-Piperidine-3-Carboxylic Acid)-IC+SRSLP-(Oic)-I-(Pen)+IPD-OH (peptide)
peptide: [X11]ICSRSLP[Oic]I[Pen]IPD-OH
modifications: disulfide 3-11; N-terminus assumed
SMILES: CC[C@H](C)[C@H](NC(=O)[C@H]1CCCNC1)C(=O)N[C@H]1CSSC(C)(C)[C@@H](C(=O)N[C@H](C(=O)N2CCC[C@H]2C(=O)N[C@@H](CC(=O)O)C(=O)O)[C@@H](C)CC)NC(=O)[C@H]([C@@H](C)CC)NC(=O)[C@@H]2C[C@@H]3CCCC[C@@H]3N2C(=O)[C@@H]2CCCN2C(=O)[C@H](CC(C)C)NC(=O)[C@H](CO)NC(=O)[C@H](CCCNC(=N)N)NC(=O)[C@H](CO)NC1=O
B6: ((N-Me)G)-IC+SRSLP-(Oic)-I-(Pen)+IPY-OH (peptide)
peptide: [Sar]ICSRSLP[Oic]I[Pen]IPY-OH
modifications: disulfide 3-11; N-terminus assumed
SMILES: CC[C@H](C)[C@H](NC(=O)CNC)C(=O)N[C@H]1CSSC(C)(C)[C@@H](C(=O)N[C@H](C(=O)N2CCC[C@H]2C(=O)N[C@@H](Cc2ccc(O)cc2)C(=O)O)[C@@H](C)CC)NC(=O)[C@H]([C@@H](C)CC)NC(=O)[C@@H]2C[C@@H]3CCCC[C@@H]3N2C(=O)[C@@H]2CCCN2C(=O)[C@H](CC(C)C)NC(=O)[C@H](CO)NC(=O)[C@H](CCCNC(=N)N)NC(=O)[C@H](CO)NC1=O
B7: ((N-Me)G)-IC+SRS-((tBu)A)-PPI-(Pen)+IP-(PEG1(10 atoms))-OH (peptide)
peptide: [Sar]ICSRS[tBuAla]PPI[Pen]IP[PEG2]-OH
modifications: disulfide 3-11; N-terminus assumed
SMILES: CC[C@H](C)[C@H](NC(=O)CNC)C(=O)N[C@H]1CSSC(C)(C)[C@@H](C(=O)N[C@H](C(=O)N2CCC[C@H]2C(=O)NCCOCCOCCC(=O)O)[C@@H](C)CC)NC(=O)[C@H]([C@@H](C)CC)NC(=O)[C@@H]2CCCN2C(=O)[C@@H]2CCCN2C(=O)[C@H](CC(C)(C)C)NC(=O)[C@H](CO)NC(=O)[C@H](CCCNC(=N)N)NC(=O)[C@H](CO)NC1=O
B8: ((R)-Piperidine-3-Carboxylic Acid)-IC+SRSLP-(Oic)-I-(Pen)+IPD-OH (peptide)
peptide: [Nip(3R)]ICSRSLP[Oic]I[Pen]IPD-OH
modifications: disulfide 3-11; N-terminus assumed
SMILES: CC[C@H](C)[C@H](NC(=O)[C@@H]1CCCNC1)C(=O)N[C@H]1CSSC(C)(C)[C@@H](C(=O)N[C@H](C(=O)N2CCC[C@H]2C(=O)N[C@@H](CC(=O)O)C(=O)O)[C@@H](C)CC)NC(=O)[C@H]([C@@H](C)CC)NC(=O)[C@@H]2C[C@@H]3CCCC[C@@H]3N2C(=O)[C@@H]2CCCN2C(=O)[C@H](CC(C)C)NC(=O)[C@H](CO)NC(=O)[C@H](CCCNC(=N)N)NC(=O)[C@H](CO)NC1=O
B9: ((N-Me)G)-IC+SRS-((tBu)A)-PPI-(Pen)+IP-((N-Me)G)-((N-Me)G)-((N-Me)G)-OH (peptide)
peptide: [Sar]ICSRS[tBuAla]PPI[Pen]IP[Sar][Sar][Sar]-OH
modifications: disulfide 3-11; N-terminus assumed
SMILES: CC[C@H](C)[C@H](NC(=O)CNC)C(=O)N[C@H]1CSSC(C)(C)[C@@H](C(=O)N[C@H](C(=O)N2CCC[C@H]2C(=O)N(C)CC(=O)N(C)CC(=O)N(C)CC(=O)O)[C@@H](C)CC)NC(=O)[C@H]([C@@H](C)CC)NC(=O)[C@@H]2CCCN2C(=O)[C@@H]2CCCN2C(=O)[C@H](CC(C)(C)C)NC(=O)[C@H](CO)NC(=O)[C@H](CCCNC(=N)N)NC(=O)[C@H](CO)NC1=O
B10: ((N-Me)G)-IC+SRSLP-(Oic)-I-(Pen)+IPDA-OH (peptide)
peptide: [Sar]ICSRSLP[Oic]I[Pen]IPDA-OH
modifications: disulfide 3-11; N-terminus assumed
SMILES: CC[C@H](C)[C@H](NC(=O)CNC)C(=O)N[C@H]1CSSC(C)(C)[C@@H](C(=O)N[C@H](C(=O)N2CCC[C@H]2C(=O)N[C@@H](CC(=O)O)C(=O)N[C@@H](C)C(=O)O)[C@@H](C)CC)NC(=O)[C@H]([C@@H](C)CC)NC(=O)[C@@H]2C[C@@H]3CCCC[C@@H]3N2C(=O)[C@@H]2CCCN2C(=O)[C@H](CC(C)C)NC(=O)[C@H](CO)NC(=O)[C@H](CCCNC(=N)N)NC(=O)[C@H](CO)NC1=O
B11: ((N-Me)G)-IC+SRSLP-(Oic)-I-(Pen)+IPR-OH (peptide)
peptide: [Sar]ICSRSLP[Oic]I[Pen]IPR-OH
modifications: disulfide 3-11; N-terminus assumed
SMILES: CC[C@H](C)[C@H](NC(=O)CNC)C(=O)N[C@H]1CSSC(C)(C)[C@@H](C(=O)N[C@H](C(=O)N2CCC[C@H]2C(=O)N[C@@H](CCCNC(=N)N)C(=O)O)[C@@H](C)CC)NC(=O)[C@H]([C@@H](C)CC)NC(=O)[C@@H]2C[C@@H]3CCCC[C@@H]3N2C(=O)[C@@H]2CCCN2C(=O)[C@H](CC(C)C)NC(=O)[C@H](CO)NC(=O)[C@H](CCCNC(=N)N)NC(=O)[C@H](CO)NC1=O
B12: ((N-Me)G)-IC+SRS-((tBu)A)-PPI-(Pen)+IP-(PEG5-CH2CO2H(18 atoms))-OH (peptide)
peptide: [Sar]ICSRS[tBuAla]PPI[Pen]IP[NH(CH2CH2O)5CH2CO]-OH
modifications: disulfide 3-11; N-terminus assumed
SMILES: CC[C@H](C)[C@H](NC(=O)CNC)C(=O)N[C@H]1CSSC(C)(C)[C@@H](C(=O)N[C@H](C(=O)N2CCC[C@H]2C(=O)NCCOCCOCCOCCOCCOCC(=O)O)[C@@H](C)CC)NC(=O)[C@H]([C@@H](C)CC)NC(=O)[C@@H]2CCCN2C(=O)[C@@H]2CCCN2C(=O)[C@H](CC(C)(C)C)NC(=O)[C@H](CO)NC(=O)[C@H](CCCNC(=N)N)NC(=O)[C@H](CO)NC1=O
B13: (3-Carboxybenzoic acid)-GIC+SRSLP-(Oic)-I-(Pen)+IPD-OH (peptide)
peptide: {Benzoyl(3-COOH)}-GICSRSLP[Oic]I[Pen]IPD-OH
modifications: disulfide 3-11
SMILES: CC[C@H](C)[C@H](NC(=O)CNC(=O)c1cccc(C(=O)O)c1)C(=O)N[C@H]1CSSC(C)(C)[C@@H](C(=O)N[C@H](C(=O)N2CCC[C@H]2C(=O)N[C@@H](CC(=O)O)C(=O)O)[C@@H](C)CC)NC(=O)[C@H]([C@@H](C)CC)NC(=O)[C@@H]2C[C@@H]3CCCC[C@@H]3N2C(=O)[C@@H]2CCCN2C(=O)[C@H](CC(C)C)NC(=O)[C@H](CO)NC(=O)[C@H](CCCNC(=N)N)NC(=O)[C@H](CO)NC1=O

Target: T1, Recombinant human MASP1 enzyme …
Assay: cell-based or functional assay

Binder | human MASP1 IC50 [nM]
B1 | 3.4
B2 | 19.5
B3 | 3.8
B4 | 3
B5 | 2.4
B6 | 3.2
[Sar]ICSRS[tBuAla]PPI[Pen]IP-{PEG8-OH} (disulfide 3-11) [((N-Me)G)-IC+SRS-((tBu)A)-PPI-(Pen)+IP-(PEG8(28 atoms))-OH] | 7.9
B7 | 2.3
B8 | 5.2
B9 | 2.3
B10 | 2.6
[Sar]ICSRS[tBuAla]PPI[Pen]IP-{PEG9-OH} (disulfide 3-11) [((N-Me)G)-IC+SRS-((tBu)A)-PPI-(Pen)+IP-(PEG9(31 atoms))-OH] | 6.3
B11 | 2.35
B12 | 2
B13 | 58

Target: Recombinant human MASP2 enzyme (fragment corresponding to amino acids 297-686, C-terminal His Tag) (human, UniProt O00187 297-686)
Assay: cell-based or functional assay

Chain of Recombinant human MASP2 enzyme (fragment corresponding to amino acids 297-686, C-terminal His Tag) (O00187 other isoform, or with tags, fused parts or gaps limits assumed): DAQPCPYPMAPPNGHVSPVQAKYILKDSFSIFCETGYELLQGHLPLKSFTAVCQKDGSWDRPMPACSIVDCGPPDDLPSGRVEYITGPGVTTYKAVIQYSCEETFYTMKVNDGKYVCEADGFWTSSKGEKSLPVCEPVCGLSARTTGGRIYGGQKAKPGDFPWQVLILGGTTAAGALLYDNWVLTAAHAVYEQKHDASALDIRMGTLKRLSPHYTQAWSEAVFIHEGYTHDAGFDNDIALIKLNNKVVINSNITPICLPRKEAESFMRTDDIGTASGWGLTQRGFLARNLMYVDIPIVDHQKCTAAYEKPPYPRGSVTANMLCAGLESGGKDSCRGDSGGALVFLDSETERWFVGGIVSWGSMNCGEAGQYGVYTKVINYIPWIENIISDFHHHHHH

Binder | human MASP2 IC50 [nM]
B1 | 37
B2 | 21
B3 | 32
B4 | 180
B5 | 32
B6 | 120
[Sar]ICSRS[tBuAla]PPI[Pen]IP-{PEG8-OH} (disulfide 3-11) [((N-Me)G)-IC+SRS-((tBu)A)-PPI-(Pen)+IP-(PEG8(28 atoms))-OH] | 76
B7 | 39
B8 | 110
B9 | 47
B10 | 84
[Sar]ICSRS[tBuAla]PPI[Pen]IP-{PEG9-OH} (disulfide 3-11) [((N-Me)G)-IC+SRS-((tBu)A)-PPI-(Pen)+IP-(PEG9(31 atoms))-OH] | 62
B11 | 48
B12 | 31
B13 | 43
